Changes are numbered by the printed parent chain. Each block holds one binder with its values, some of them ahead of it.
Assays:
[1] = molecular target: recombinant human VEGF165 (human, UniProt P15692 207-395); assay: cell-based or functional assay
[2] = molecular target: recombinant human PDGF-BB (human, UniProt P01127 82-190); assay: cell-based or functional assay
[3] = molecular target: T1, recombinant human PDGF-BB (human, UniProt P01127 82-190, biotin-labelled in the binding and competition ELISAs (sites not given)); assay: cell-based or functional assay
T1 sequence (P01127 82-190 limits assumed): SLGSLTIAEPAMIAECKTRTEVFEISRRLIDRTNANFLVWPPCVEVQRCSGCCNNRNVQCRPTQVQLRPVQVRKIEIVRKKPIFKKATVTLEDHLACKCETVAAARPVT

[4] = molecular target: T1, recombinant human PDGF-BB; assay: Biacore SPR, antibody captured by anti-human Fc, PDGF-BB injected
Protocol: For example, approximately 9000 RU of goat anti-human Fc specific polyclonal antibody (Thermo Fisher Scientific Inc., Rockford, Ill.) diluted in 10 mM sodium acetate (pH 4.5) is directly immobilized across a CM5 research grade biosensor chip using a standard amine coupling kit according to manufacturer's instructions and procedures at 25 μg/ml. Unreacted moieties on the biosensor surface were blocked with ethanolamine. For kinetic analysis, rate equations derived from the 1:1 Langmuir binding model were fitted simultaneously to multiple antigen injections (using global fit analysis) with the use of Scrubber 2 (BioLogic Software), Biacore Biaevaluation 4.0.1 software or Biacore T100 Evaluation software. Purified antibodies or DVD-Ig molecules were diluted in running buffer for capture across goat anti-human Fc reaction surfaces. Antibodies or DVD-Ig molecules to be captured as a ligand (1 μg/ml) were injected over reaction matrices at a flow rate of 10 μl/minute. During the assay, all measurements were referenced against the capture surface alone (i.e., with no captured antibody or DVD-Ig molecule). […] The equilibrium dissociation constant KD (M) of the reaction between antibodies and the target antigen was then calculated from the kinetic rate constants by the following formula: KD=Koff/Kₒₙ. Binding was recorded as a function of time and kinetic rate constants were calculated.

Sequence of recombinant human PDGF-BB (human, UniProt P01127 82-190) (P01127 82-190 limits assumed): as above
Sequence of recombinant human VEGF165 (P15692 other isoform, or with tags, fused parts or gaps limits assumed): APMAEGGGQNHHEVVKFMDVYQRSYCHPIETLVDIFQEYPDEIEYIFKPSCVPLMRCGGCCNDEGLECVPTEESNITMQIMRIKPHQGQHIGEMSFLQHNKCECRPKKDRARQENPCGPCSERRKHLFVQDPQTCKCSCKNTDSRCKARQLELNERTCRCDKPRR

- Potency IC50 (nM), HMVEC-d hVEGF165 (proliferation) [1]: 0.059 nM
- Potency IC50 (nM), NIH-3T3 hPDGF-BB (proliferation) [2]: 0.052 nM
B1: CL-34565_GS_CL-33675 (PR-1613183) (bispecific antibody, human IgG1, kappa, L234A L235A)
heavy: EVQLVQSGSELKKPGASVKVSCKASGYTFTDYGMYWVRQAPGQGLEWMGWIDTETGDPTYADDFKGRFVFSLDTSVSTAYLQISSLKAEDTAVYYCARTNYYYRNYMFYFDYWGQGTMVTVSSGGGGSGGGGSEVTLRESGPALVKPTQTLTLTCTFSGFSLSTYGMGVGWIRQPPGKALEWLANIWWDDDKYYNPSLKNRLTISKDTSKNQVVLTMTNMDPVDTATYYCARIESSGPKYSFDYWGQGTMVTVSSASTKGPSVFPLAPSSKSTSGGTAALGCLVKDYFPEPVTVSWNSGALTSGVHTFPAVLQSSGLYSLSSVVTVPSSSLGTQTYICNVNHKPSNTKVDKKVEPKSCDKTHTCPPCPAPEAAGGPSVFLFPPKPKDTLMISRTPEVTCVVVDVSHEDPEVKFNWYVDGVEVHNAKTKPREEQYNSTYRVVSVLTVLHQDWLNGKEYKCKVSNKALPAPIEKTISKAKGQPREPQVYTLPPSREEMTKNQVSLTCLVKGFYPSDIAVEWESNGQPENNYKTTPPVLDSDGSFFLYSKLTVDKSRWQQGNVFSCSVMHEALHNAYTQKSLSLSPGK
light: EIVLTQSPATLSLSPGERATLFCRASQSVSNHMHWYQQKPGQAPRLLIYGASILESGVPARFSGSGSGTDFTLTISSLEPEDFAVYYCQQSWYDPITFGQGTKLEIKGGSGGGGSGGEIVLTQSPGTLSLSPGERATLSCRASSGSIWYSFVSWYQQKPGQAPRLLIYADDQRASGIPDRFSGSGSGTDFTLTISRLEPEDFAVYYCQSYGINIDVVFGGGTKVEIKRTVAAPSVFIFPPSDEQLKSGTASVVCLLNNFYPREAKVQWKVDNALQSGNSQESVTEQDSKDSTYSLSSTLTLSKADYEKHKVYACEVTHQGLSSPVTKSFNRGEC

- Potency IC50 (nM), HMVEC-d hVEGF165 (proliferation) [1]: 0.065 nM
- Potency IC50 (nM), NIH-3T3 hPDGF-BB (proliferation) [2]: 0.323 nM
B2: CL-34565_GS_9E8.4 (PR-1613184) (bispecific antibody, human IgG1, kappa, L234A L235A)
heavy: B1 heavy with S236I, P238T, K239T
light: EIVLTQSPATLSLSPGERATLFCRASQSVSNHMHWYQQKPGQAPRLLIYGASILESGVPARFSGSGSGTDFTLTISSLEPEDFAVYYCQQSWYDPITFGQGTKLEIKGGSGGGGSGGEFVLTQSPGTLSLSPGERATLSCERSSGDIGDSYVSWYQQKPGQAPRLVIYADDQRPSGIPDRFSGSGSGTDFTLTISRLEPEDFAVYYCQSYDINIDIVFGGGTKVEIKRTVAAPSVFIFPPSDEQLKSGTASVVCLLNNFYPREAKVQWKVDNALQSGNSQESVTEQDSKDSTYSLSSTLTLSKADYEKHKVYACEVTHQGLSSPVTKSFNRGEC

- Potency IC50 (nM), HMVEC-d hVEGF165 (proliferation) [1]: 0.133 nM
- Potency IC50 (nM), NIH-3T3 hPDGF-BB (proliferation) [2]: 0.394 nM
B3: 3E2.1_GS_9E10.1 (PR-1612500) (bispecific antibody, human IgG1, kappa, L234A L235A)
heavy: EVQLVQSGAEVKKPGSSVKVSCKASGYTFTESYMYWVKQAPGQGLELIGRIDPEDGSTDYVEKFKNKATLTADKSTSTAYMELSSLRSEDTAVYFCARFGARSYFYPMDAWGQGTTVTVSSGGGGSGGGGSEIQLVQSGSELKKPGASVKVSCKASGYTFTNYGMYWVKQAPGQGLEYMGWIDTETGRPTYADDFKGRFVFSLDTSVSTAYLQISSLKAEDTAVYFCARWSGDTTGIRGPWFAYWGQGTLVTVSSASTKGPSVFPLAPSSKSTSGGTAALGCLVKDYFPEPVTVSWNSGALTSGVHTFPAVLQSSGLYSLSSVVTVPSSSLGTQTYICNVNHKPSNTKVDKKVEPKSCDKTHTCPPCPAPEAAGGPSVFLFPPKPKDTLMISRTPEVTCVVVDVSHEDPEVKFNWYVDGVEVHNAKTKPREEQYNSTYRVVSVLTVLHQDWLNGKEYKCKVSNKALPAPIEKTISKAKGQPREPQVYTLPPSREEMTKNQVSLTCLVKGFYPSDIAVEWESNGQPENNYKTTPPVLDSDGSFFLYSKLTVDKSRWQQGNVFSCSVMHEALHNAYTQKSLSLSPGK
light: ETVLTQSPATLSLSPGERATLSCRASESVSTLMHWYQQKPGQQPRLLIYGASNLESGVPARFSGSGSGTDFTLTISSLEPEDFAVYFCQQSWNDPWTFGGGTKVEIKGGSGGGGSGGDIRMTQSPSSLSASVGDRVTIECLASEDIYSDLAWYQQKPGKSPKLLIYNANGLQNGVPSRFSGSGSGTDYSLTISSLQPEDVATYFCQQYNYFPGTFGQGTKLEIKRTVAAPSVFIFPPSDEQLKSGTASVVCLLNNFYPREAKVQWKVDNALQSGNSQESVTEQDSKDSTYSLSSTLTLSKADYEKHKVYACEVTHQGLSSPVTKSFNRGEC

- Potency IC50 (nM), HMVEC-d hVEGF165 (proliferation) [1]: 0.188 nM
- Potency IC50 (nM), NIH-3T3 hPDGF-BB (proliferation) [2]: 0.377 nM
B4: 3E2.1_GS_9E10.6 (PR-1612501) (bispecific antibody, human IgG1, kappa, L234A L235A)
heavy: EVQLVQSGAEVKKPGSSVKVSCKASGYTFTESYMYWVKQAPGQGLELIGRIDPEDGSTDYVEKFKNKATLTADKSTSTAYMELSSLRSEDTAVYFCARFGARSYFYPMDAWGQGTTVTVSSGGGGSGGGGSEVQLVQSGAEVKKPGSSVKVSCKASGYTFTNYGMYWVRQAPGQGLEWMGWIDTETGRPTYADDFKGRFTFTADKSTSTAYMELSSLRSEDTAVYYCARWSGDTTGIRGPWFAYWGQGTLVTVSSASTKGPSVFPLAPSSKSTSGGTAALGCLVKDYFPEPVTVSWNSGALTSGVHTFPAVLQSSGLYSLSSVVTVPSSSLGTQTYICNVNHKPSNTKVDKKVEPKSCDKTHTCPPCPAPEAAGGPSVFLFPPKPKDTLMISRTPEVTCVVVDVSHEDPEVKFNWYVDGVEVHNAKTKPREEQYNSTYRVVSVLTVLHQDWLNGKEYKCKVSNKALPAPIEKTISKAKGQPREPQVYTLPPSREEMTKNQVSLTCLVKGFYPSDIAVEWESNGQPENNYKTTPPVLDSDGSFFLYSKLTVDKSRWQQGNVFSCSVMHEALHNAYTQKSLSLSPGK
light: B3 light with E139T, S189T

- Potency IC50 (nM), HMVEC-d hVEGF165 (proliferation) [1]: 1.78 nM
- Potency IC50 (nM), NIH-3T3 hPDGF-BB (proliferation) [2]: 0.187 nM
B5: 3E2.1_GS_1B10.1 (PR-1612502) (bispecific antibody, human IgG1, kappa, L234A L235A)
heavy: EVQLVQSGAEVKKPGSSVKVSCKASGYTFTESYMYWVKQAPGQGLELIGRIDPEDGSTDYVEKFKNKATLTADKSTSTAYMELSSLRSEDTAVYFCARFGARSYFYPMDAWGQGTTVTVSSGGGGSGGGGSEVQLVESGGGLVQPGGSLRLSCAASGFSFSKYDMAWFRQAPGKGLEWVASITTSGVGTYYRDSVKGRFTVSRDNAKSTLYLQMNSLRAEDTAVYYCARGYGAMDAWGQGTTVTVSSASTKGPSVFPLAPSSKSTSGGTAALGCLVKDYFPEPVTVSWNSGALTSGVHTFPAVLQSSGLYSLSSVVTVPSSSLGTQTYICNVNHKPSNTKVDKKVEPKSCDKTHTCPPCPAPEAAGGPSVFLFPPKPKDTLMISRTPEVTCVVVDVSHEDPEVKFNWYVDGVEVHNAKTKPREEQYNSTYRVVSVLTVLHQDWLNGKEYKCKVSNKALPAPIEKTISKAKGQPREPQVYTLPPSREEMTKNQVSLTCLVKGFYPSDIAVEWESNGQPENNYKTTPPVLDSDGSFFLYSKLTVDKSRWQQGNVFSCSVMHEALHNAYTQKSLSLSPGK
light: ETVLTQSPATLSLSPGERATLSCRASESVSTLMHWYQQKPGQQPRLLIYGASNLESGVPARFSGSGSGTDFTLTISSLEPEDFAVYFCQQSWNDPWTFGGGTKVEIKGGSGGGGSGGDIQMTQSPSSLSASVGDRVTITCKASQDIDDYLSWYQQKPGKSPKLVIYAATRLADGVPSRFSGSGSGTDYTLTISSLQPEDFATYYCLQSSSTPWTFGGGTKVEIKRTVAAPSVFIFPPSDEQLKSGTASVVCLLNNFYPREAKVQWKVDNALQSGNSQESVTEQDSKDSTYSLSSTLTLSKADYEKHKVYACEVTHQGLSSPVTKSFNRGEC

- huPDGF-BB Neutralization Potency (nM) in NIH-3T3 Cells [3]: 0.099 nM
- Kd [4]: ≤ 19 pM
- koff [4]: 0.00019 s⁻¹
- kon [4]: ≥ 1e+07 M⁻¹ s⁻¹
B6: chBFU-3E2-B9-B8 (antibody, human IgG1, V domains shown)
VH: EVQLQQSGPELQRPGASVKLSCKASGYTFTESYMYWVKQRPEQSLELIGRIDPEDGSTDYVEKFKNKATLTADTSSNTAYMQLSSLTSEDSATYFCARFGARSYFYPMDAWGQGTSVTVSS
VL: DTVLTQPPALAVSPGERVSISCRASESVSTLMHWYQQKPGQQPRLLIYGASNLESGVPARFSGSGSGTDFTLTIDPVEADDTATYFCQQSWNDPWTFGGGTKLELK

- huPDGF-BB Neutralization Potency (nM) in NIH-3T3 Cells [3]: 0.086 nM
- Kd [4]: ≤ 15 pM
- koff [4]: 0.00015 s⁻¹
- kon [4]: ≥ 1e+07 M⁻¹ s⁻¹
B7: chBFU-11A8-D6-C3 (antibody, human IgG1, V domains shown)
VH: B6 VH with M34I, S91T
VL: B6 VL with P7S, A9T, S21P
